The numbers were not newly measured in paper PMC3137789, which cites them from elsewhere.

The data set deals with plexinC1 (Homo sapiens) (UniProt O60486).
Chain of UniProt O60486 (O60486 35-944): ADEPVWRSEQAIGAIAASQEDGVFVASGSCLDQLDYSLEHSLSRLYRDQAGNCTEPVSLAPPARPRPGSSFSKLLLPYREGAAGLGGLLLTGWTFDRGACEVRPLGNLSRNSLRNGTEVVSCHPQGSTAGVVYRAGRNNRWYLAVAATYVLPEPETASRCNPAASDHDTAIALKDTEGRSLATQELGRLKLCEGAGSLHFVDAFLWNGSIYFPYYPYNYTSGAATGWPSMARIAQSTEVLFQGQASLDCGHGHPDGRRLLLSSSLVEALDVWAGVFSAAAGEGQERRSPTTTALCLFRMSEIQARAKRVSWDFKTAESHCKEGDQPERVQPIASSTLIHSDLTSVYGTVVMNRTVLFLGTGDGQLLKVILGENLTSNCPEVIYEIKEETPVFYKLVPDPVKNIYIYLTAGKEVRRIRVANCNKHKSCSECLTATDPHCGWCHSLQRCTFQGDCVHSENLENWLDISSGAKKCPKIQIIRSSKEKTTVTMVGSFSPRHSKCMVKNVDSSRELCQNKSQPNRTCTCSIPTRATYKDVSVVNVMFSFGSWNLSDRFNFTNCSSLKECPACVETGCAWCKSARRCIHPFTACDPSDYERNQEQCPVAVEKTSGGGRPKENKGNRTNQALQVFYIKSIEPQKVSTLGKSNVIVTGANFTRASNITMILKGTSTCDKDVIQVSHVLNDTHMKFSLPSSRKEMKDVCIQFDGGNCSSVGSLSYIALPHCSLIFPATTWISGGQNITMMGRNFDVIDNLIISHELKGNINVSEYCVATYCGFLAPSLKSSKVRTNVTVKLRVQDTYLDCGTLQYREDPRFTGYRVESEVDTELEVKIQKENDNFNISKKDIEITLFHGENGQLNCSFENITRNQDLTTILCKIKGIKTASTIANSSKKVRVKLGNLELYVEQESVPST

What is called Kd is the constant that tells how readily two partners part at equilibrium. Consider Sema7A (from UniProt O75326), for which the Kd was 300 nM.
